Test system: TO-N3-2 (biotin conjugate)
Experiment: pull-down binding Z-score (relative to library population); higher = stronger binding
Conditions: RNA library: Library-2
Method in brief: (§1)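 Streptavidin beads with 100 pmol of biotin-conjugated small molecule were incubated for 60 min at 25 °C with 1 μg of heat-folded Cy5- or Cy3-end-labelled RNA library in phosphate/NaCl/KCl buffer. Bound RNA was eluted in hot SDS after three washes and hybridised to a DNA barcode microarray at 55.5 °C for 20 h. Each binding score is a library-referenced Z-score, computed after beads-only subtraction and a trimmed mean of barcoded replicate probes.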

| Sequence | pull-down binding Z-score |
| --- | --- |
| AGAUCACUUUUCUGCACUGGACAGUGAUCU [hsa-mir-3686] | -0.833 |
| AGAUCCCCUGUUAGAGACGGGCC [hsa-mir-6840] | 0.991 |
| AGAUCCUGUCUUUCGUAAUCAGCAGCU [hsa-mir-222] | 0.228 |
| AGAUCUAUGUCAUAUAUACAGAUAU [hsa-mir-3924] | -0.356 |
| AGAUCUGUCUCUGAUUGUUUCCAAGAUCU [hsa-mir-6888] | 0.0817 |
| AGAUGAAAUGCCUUUGAUUU [hsa-mir-3658] | -0.505 |
| AGAUGAGGGUGUCGGAUCAACU [hsa-mir-193a] | 0.801 |
| AGAUGAGUUUAUGUUUUAUCCAACU [hsa-mir-193b] | -0.135 |
| AGAUGUGUUUCCAUUCCACUAUCAUAAU [hsa-mir-365a] | -0.292 |
| AGCAAGGUGCGUCGUAUCUUGCU [hsa-mir-4804] | -0.798 |
| AGCACUUUCUGUUGUCUGAAAGAAAAGAAAGUGCU [hsa-mir-516a-1_516a-2] | -0.0183 |
| AGCACUUUCUGUUUUGUGAAAGAAAAGAAAGUGCU [hsa-mir-516b-1] | -1.2 |
| AGCACUUUGUGUUUUGUGAAAGAAAGUGCU [hsa-mir-516b-2] | -0.576 |
| AGCAGUACCAGACGGUUCUGUGG [hsa-mir-3198-1] | 0.525 |
| AGCAGUACCAGAUGGUUCUGUGG [hsa-mir-3198-2] | -0.167 |
| AGCAUCUGAAUGGGUACAGUUGUUGU [hsa-mir-6818] | -0.225 |
| AGCAUGCACUUAAUGUGGGUGUAUGU [hsa-mir-668] | -0.105 |
| AGCCAAAAUCACCAGGGA [hsa-mir-4534] | 0.563 |

Test system: G-clamp-N3 (biotin conjugate)
Experiment: as above
Conditions: RNA library: Library-1 (pre-miRNA loops + repeats)
Method in brief: as §1

| Sequence | pull-down binding Z-score |
| --- | --- |
| ACCACUGUGAAGACAGUAAAAUGUACAGUGGU [hsa-mir-597] | 0.0112 |
| ACCAUAGUCAUAAGUUAGGAGAUGUUAGAGCUGUGAGU [hsa-mir-4286] | 0.233 |
| ACCAUAUCUAAGCUAAUGUGGUGGU [hsa-mir-876] | 0.651 |
| ACCCAGGACUCUUUCAUGACCA [hsa-mir-665] | -0.54 |
| ACCCGGGUGGUGGAGGUUGCAGUGAGCCAAGAUUGCGCCACUGCACUCCAGCCUGGGC [hsa-mir-1273a] | -0.139 |
| ACCCUGCAGCCCCAGCUGGAGGAUGAGGAGAUGCUGGGCUUGGGU [hsa-mir-4313] | 1.16 |
| ACCUAACACACUGCCUUUUAUGUGGUAGGU [hsa-mir-5094] | -1.19 |
| ACCUCCUGGCUUUUCCUCUGCAGCAUGGCUCGGACCUAGUGCAAUGUUUAAGCU [hsa-mir-6826] | -0.435 |
| ACCUGUGUGUGCCCAAGUGUUUCUAGCAAACACAGGG [hsa-mir-3649] | 0.215 |
| ACCUUCCAAGGCUCAGAAGGU [hsa-mir-4650-1_4650-2] | -0.155 |
| ACGAGAGUGAGUAGCAGGUCUC [hsa-mir-128-2] | 2.31 |
| ACGAUAUAGGUAUGUAUGUAUGUAUGUAUAAAAGCAGGGCAGUAUAUAUAUCGU [hsa-mir-4536-2] | 1.53 |
| ACGAUAUAUAUACUGCCCUGCUUUUAUACAUACAUACAUACAUACCUAUAUCGU [hsa-mir-4536-1] | -0.956 |
| ACGCGCUGUGACACUUCAAACUCGU [hsa-mir-126] | -0.904 |
| ACGUCCAGUGGUGCAGAGGUAAUGGACGU [hsa-mir-1306] | 2.13 |
| ACGUCUGGCCGCGUGCGCAUGU [hsa-mir-3175] | 1.55 |
| ACGUGACCUCCUGGGCCUG [hsa-mir-6770-1_6770-3_6770-2] | -0.342 |
| ACUAAUUUUUCCACUAGUUAGU [hsa-mir-4424] | -0.61 |
| ACUACUAUAGGCCGCUGGGAAGCAGU [hsa-mir-130b] | 0.987 |
| ACUACUGUACUUUACAGCUAGCAGU [hsa-mir-301a] | 0.0373 |
| ACUACUGUGCUCUGAGAAGCAGU [hsa-mir-301b] | 1.42 |
| ACUAGAUUUGAAUCCAGACCUUUAGU [hsa-mir-5584] | -0.461 |
| ACUCCCAGAACUCAUUAAGUUGGUAGU [hsa-mir-1278] | -0.174 |
| ACUCCUAGGUCACGGAAGU [hsa-mir-6838] | -0.404 |

| Sequence | pull-down binding Z-score |
| --- | --- |
| ACUGAACCAGCUUCAAACAAGUUCACU [hsa-mir-653] | -0.145 |
| ACUUAAGCACCAGGUAAAAUCUGGUGCUUAAGU [hsa-mir-4720] | 0.139 |
| ACUUCAGAUGCUUCAUGACA [hsa-mir-6865] | -0.511 |
| ACUUUCACCAGAGAGCAGAAAGU [hsa-mir-371b] | 0.341 |
| ACUUUCUGGUGCCAGAAUGAAAGU [hsa-mir-512-2_512-1] | -0.15 |
| ACUUUCUGUUUGAAAGAAAACAAAGU [hsa-mir-519e] | -0.167 |
| ACUUUUUUUUUUUUUUUUUUUAAUGUUAAAAGU [hsa-mir-5588] | 0.463 |
| AGAAAAUUUUUCUCCAAAGUUUUCU [hsa-mir-4659b] | -0.123 |
| AGAAACCUACUUAUUACAUAGUUUACAUAAGAAGCGUGAU [hsa-mir-1322] | -0.594 |
| AGAAAGUGAAACACUAUUUUAGGUUUU [hsa-mir-4458] | -0.486 |
| AGAAAUCAAGCUAUUUGCUAAAAGUUCU [hsa-mir-6844] | -0.369 |
| AGAACAGAUAUAUCCACAGUACACUUGGCUGUUCU [hsa-mir-4753] | 0.593 |
| AGAACAUUCGUUCACUUUCCU [hsa-mir-6747] | -1.1 |
| AGAACUUUGGUUUU [hsa-mir-4434] | 0.298 |
| AGAAGAACU [hsa-mir-378j] | -0.205 |
| AGAAGACCU [hsa-mir-378g] | 0.213 |
| AGAAGCCCAGGUUCUGAAUCCCCU [hsa-mir-6734] | -1.05 |
| AGAAGCUAAAGUGUAGAUCAAACGCAUAAUGGCUGA [hsa-mir-4500] | -0.364 |
| AGAAGGCCUAUGGUGAUUUGCAUUCUU [hsa-mir-6875] | 0.997 |
| AGAAUUACUUAUCUGAGCCAAAGUAAUUCA [hsa-mir-1297] | -0.86 |
| AGACAGCCUGAGUUGGAGGCUCAUCUUCACUUCUUGCUGUGU [hsa-mir-3168] | -0.917 |
| AGACCUUCCUUCCUUGUCU [hsa-mir-3163] | -1.91 |
| AGACUCUGGAUUUUACACUUGGAGUG [hsa-mir-887] | -0.423 |
| AGAGAUGAGCAUAAAGUUUUU [hsa-mir-6086] | -1.36 |

| Sequence | pull-down binding Z-score |
| --- | --- |
| AGAGCACCUCCUAGAGAAUGUUGAACUAAAGGUGCCC [hsa-mir-4723] | -0.814 |
| AGAGCGUGGGCUGGGGUUCAGGGACACCCUCU [hsa-mir-1229] | 1.46 |
| AGAGGCUGUGGGCAGGGGGAGAUGUGAAGGAAAGAACUAGGACCCAUUCAUCCACU [hsa-mir-6807] | 0.739 |
| AGAGUCCUGUUGUUGUAAGAUAGUGUCU [hsa-mir-550a-3] | 0.441 |
| AGAUAGUGAAGUAGAUUAGCAUCUACU [hsa-mir-18a] | -0.59 |
| AGAUAUAUAUAUACCUCAUAUGUAUAUGGUAUAC [hsa-mir-4777] | -1.5 |
| AGAUCACUUUUCUGCACUGGACAGUGAUCU [hsa-mir-3686] | -0.182 |
| AGAUCCCCUGUUAGAGACGGGCC [hsa-mir-6840] | -1.25 |
| AGAUCCUGUCUUUCGUAAUCAGCAGCU [hsa-mir-222] | -0.246 |
| AGAUCUAUGUCAUAUAUACAGAUAU [hsa-mir-3924] | -0.51 |
| AGAUCUGUCUCUGAUUGUUUCCAAGAUCU [hsa-mir-6888] | -0.781 |
| AGAUGAAAUGCCUUUGAUUU [hsa-mir-3658] | -1.49 |
| AGAUGAGGGUGUCGGAUCAACU [hsa-mir-193a] | 1.51 |
| AGAUGAGUUUAUGUUUUAUCCAACU [hsa-mir-193b] | -1.8 |
| AGAUGUGUUUCCAUUCCACUAUCAUAAU [hsa-mir-365a] | -0.718 |
| AGCAAGGUGCGUCGUAUCUUGCU [hsa-mir-4804] | 0.816 |
| AGCACUUUCUGUUGUCUGAAAGAAAAGAAAGUGCU [hsa-mir-516a-1_516a-2] | 1.47 |
| AGCACUUUCUGUUUUGUGAAAGAAAAGAAAGUGCU [hsa-mir-516b-1] | -0.472 |
| AGCACUUUGUGUUUUGUGAAAGAAAGUGCU [hsa-mir-516b-2] | 2.82 |
| AGCAGUACCAGACGGUUCUGUGG [hsa-mir-3198-1] | -0.487 |
| AGCAGUACCAGAUGGUUCUGUGG [hsa-mir-3198-2] | -1.54 |
| AGCAUCUGAAUGGGUACAGUUGUUGU [hsa-mir-6818] | -0.405 |
| AGCAUGCACUUAAUGUGGGUGUAUGU [hsa-mir-668] | 0.305 |
| AGCCAAAAUCACCAGGGA [hsa-mir-4534] | 0.0802 |
